Test results: article doi:10.1101/264085 (bioRxiv, 2018)
Residue numbers refer to the chain shown, from its start. Blank lines part the entries; values can stand above or below the binder they belong to.

What was measured:
NDP52(1-126) = target: T1, NDP52(1-126) (human, UniProt Q13137 1-126); assay: ITC
T1 sequence (looked up): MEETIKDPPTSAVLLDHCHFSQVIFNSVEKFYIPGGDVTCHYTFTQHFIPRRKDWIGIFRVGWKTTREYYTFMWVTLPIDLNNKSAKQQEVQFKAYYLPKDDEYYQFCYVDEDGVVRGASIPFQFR

NDP52(10-126) [1] = target: T2, NDP52(10-126) (human, UniProt Q13137 10-126); assay: crystal structure
T2 sequence (looked up): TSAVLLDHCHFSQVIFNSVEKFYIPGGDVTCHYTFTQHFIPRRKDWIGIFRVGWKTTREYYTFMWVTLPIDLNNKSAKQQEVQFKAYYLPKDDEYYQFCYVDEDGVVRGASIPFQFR

TAX1BP1(1-121) S25E = TAX1BP1(1-121) S25E (human, UniProt Q86VP1 1-121, S25E); assay: ITC
Sequence of TAX1BP1(1-121) S25E (Q86VP1 1-121 S25E): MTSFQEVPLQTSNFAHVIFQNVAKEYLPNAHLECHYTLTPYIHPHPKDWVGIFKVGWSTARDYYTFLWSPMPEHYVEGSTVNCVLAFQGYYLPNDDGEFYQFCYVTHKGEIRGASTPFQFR

NDP52(1-126) T39E = target: T3, NDP52(1-126) T39E (human, UniProt Q13137 1-126, T39E); assay: ITC
T3 sequence (looked up): T1 sequence (looked up) with T39E

NDP52(10-126) F20Q = target: T4, NDP52(10-126) F20Q (human, UniProt Q13137 10-126, F20Q); assay: ITC
T4 sequence (looked up): T2 sequence (looked up) with F11Q

TAX1BP1(1-121) = TAX1BP1(1-121) (human, UniProt Q86VP1 1-121); assay: ITC
Sequence of TAX1BP1(1-121) (Q86VP1 1-121): as the sequence (Q86VP1 1-121 S25E) above, with E25S counted along it

NDP52(10-126) [2] = target: T2, NDP52(10-126); assay: AUC
AUC = target: the molecule itself; assay: AUC

Kd (NDP52(1-126)): ~1800 nM
B1: NAP1(1-75) (domain or fragment, human, UniProt Q9H6S1 1-75, looked up)
chain: MDALVEDDICILNHEKAHKRDTVTPVSIYSGDESVASHFALVTAYEDIKKRLKDSEKENSLLKKRIRFLEEKLIA

stoichiometry N (NDP52(10-126) [1]): 1 NDP52 chains per NAP1 chain (2:2)
binding result (TAX1BP1(1-121) S25E): binds
binding result (NDP52(1-126) T39E): binds
Kd (NDP52(1-126)): ~1150 nM
binding result (NDP52(10-126) F20Q): binds
Kd (TAX1BP1(1-121)): ~2050 nM
stoichiometry N (NDP52(10-126) [2]): 2 NDP52(10-126) molecules per NAP1(33-75) dimer
B2: NAP1(33-75) (domain or fragment, human, UniProt Q9H6S1 33-75, looked up)
chain: ESVASHFALVTAYEDIKKRLKDSEKENSLLKKRIRFLEEKLIA
stoichiometry N (AUC): 2

Kd (NDP52(1-126)): ~1490 nM
B3: NAP1(1-85) (domain or fragment, human, UniProt Q9H6S1 1-85, looked up)
chain: MDALVEDDICILNHEKAHKRDTVTPVSIYSGDESVASHFALVTAYEDIKKRLKDSEKENSLLKKRIRFLEEKLIARFEEETSSVG
